Measurements: patent US20140206609A1 (Sanofi, published 2014)
*1 amine or outer side, *2 acyl side, *3 side chain or, on linkers, in order; H or OH if unused. Where no end group is shown, it is not given here. Side-chain parts run from the residue outwards. [ ]: non-standard residue; d: D form. The star is where a group is joined. henicosanoyl = CCCCCCCCCCCCCCCCCCCCC(=O)*; γGlu = O=C(O)[C@H](CCC(=O)[*:2])N[*:1]; Stearoyl = CCCCCCCCCCCCCCCCCC(=O)*; Palmitoyl = CCCCCCCCCCCCCCCC(=O)*; Aib = CC(C)(N)C(=O)O

B1: SEQ ID NO: 19 (peptide)
peptide: Y[Aib]EGTFTSDLSIQK([γGlu-Stearoyl])EKRAAQEFIEWLKNTGPSSGAPPPS-NH2
modifications: N-terminus assumed
SMILES: CCCCCCCCCCCCCCCCCC(=O)N[C@@H](CCC(=O)NCCCC[C@H](NC(=O)[C@H](CCC(N)=O)NC(=O)[C@@H](NC(=O)[C@H](CO)NC(=O)[C@H](CC(C)C)NC(=O)[C@H](CC(=O)O)NC(=O)[C@H](CO)NC(=O)[C@@H](NC(=O)[C@H](Cc1ccccc1)NC(=O)[C@@H](NC(=O)CNC(=O)[C@H](CCC(=O)O)NC(=O)C(C)(C)NC(=O)[C@@H](N)Cc1ccc(O)cc1)[C@@H](C)O)[C@@H](C)O)[C@@H](C)CC)C(=O)N[C@@H](CCC(=O)O)C(=O)N[C@@H](CCCCN)C(=O)N[C@@H](CCCNC(=N)N)C(=O)N[C@@H](C)C(=O)N[C@@H](C)C(=O)N[C@@H](CCC(N)=O)C(=O)N[C@@H](CCC(=O)O)C(=O)N[C@@H](Cc1ccccc1)C(=O)N[C@H](C(=O)N[C@@H](CCC(=O)O)C(=O)N[C@@H](Cc1c[nH]c2ccccc12)C(=O)N[C@@H](CC(C)C)C(=O)N[C@@H](CCCCN)C(=O)N[C@@H](CC(N)=O)C(=O)N[C@H](C(=O)NCC(=O)N1CCC[C@H]1C(=O)N[C@@H](CO)C(=O)N[C@@H](CO)C(=O)NCC(=O)N[C@@H](C)C(=O)N1CCC[C@H]1C(=O)N1CCC[C@H]1C(=O)N1CCC[C@H]1C(=O)N[C@@H](CO)C(N)=O)[C@@H](C)O)[C@@H](C)CC)C(=O)O
B2: SEQ ID NO: 20 (peptide)
peptide: Y[Aib]EGTFTSDLSIQK([γGlu-henicosanoyl])EKRAA[Aib]EFIEWLKNTGPSSGAPPPS-NH2
modifications: N-terminus assumed
SMILES: CCCCCCCCCCCCCCCCCCCCC(=O)N[C@@H](CCC(=O)NCCCC[C@H](NC(=O)[C@H](CCC(N)=O)NC(=O)[C@@H](NC(=O)[C@H](CO)NC(=O)[C@H](CC(C)C)NC(=O)[C@H](CC(=O)O)NC(=O)[C@H](CO)NC(=O)[C@@H](NC(=O)[C@H](Cc1ccccc1)NC(=O)[C@@H](NC(=O)CNC(=O)[C@H](CCC(=O)O)NC(=O)C(C)(C)NC(=O)[C@@H](N)Cc1ccc(O)cc1)[C@@H](C)O)[C@@H](C)O)[C@@H](C)CC)C(=O)N[C@@H](CCC(=O)O)C(=O)N[C@@H](CCCCN)C(=O)N[C@@H](CCCNC(=N)N)C(=O)N[C@@H](C)C(=O)N[C@@H](C)C(=O)NC(C)(C)C(=O)N[C@@H](CCC(=O)O)C(=O)N[C@@H](Cc1ccccc1)C(=O)N[C@H](C(=O)N[C@@H](CCC(=O)O)C(=O)N[C@@H](Cc1c[nH]c2ccccc12)C(=O)N[C@@H](CC(C)C)C(=O)N[C@@H](CCCCN)C(=O)N[C@@H](CC(N)=O)C(=O)N[C@H](C(=O)NCC(=O)N1CCC[C@H]1C(=O)N[C@@H](CO)C(=O)N[C@@H](CO)C(=O)NCC(=O)N[C@@H](C)C(=O)N1CCC[C@H]1C(=O)N1CCC[C@H]1C(=O)N1CCC[C@H]1C(=O)N[C@@H](CO)C(N)=O)[C@@H](C)O)[C@@H](C)CC)C(=O)O
B3: SEQ ID NO: 23 (peptide)
peptide: Y[Aib]EGTFTSDLSIQK([γGlu-Palmitoyl])ESRAAQDFIEWLKNTGPSSGAPPPS-NH2
modifications: N-terminus assumed
SMILES: CCCCCCCCCCCCCCCC(=O)N[C@@H](CCC(=O)NCCCC[C@H](NC(=O)[C@H](CCC(N)=O)NC(=O)[C@@H](NC(=O)[C@H](CO)NC(=O)[C@H](CC(C)C)NC(=O)[C@H](CC(=O)O)NC(=O)[C@H](CO)NC(=O)[C@@H](NC(=O)[C@H](Cc1ccccc1)NC(=O)[C@@H](NC(=O)CNC(=O)[C@H](CCC(=O)O)NC(=O)C(C)(C)NC(=O)[C@@H](N)Cc1ccc(O)cc1)[C@@H](C)O)[C@@H](C)O)[C@@H](C)CC)C(=O)N[C@@H](CCC(=O)O)C(=O)N[C@@H](CO)C(=O)N[C@@H](CCCNC(=N)N)C(=O)N[C@@H](C)C(=O)N[C@@H](C)C(=O)N[C@@H](CCC(N)=O)C(=O)N[C@@H](CC(=O)O)C(=O)N[C@@H](Cc1ccccc1)C(=O)N[C@H](C(=O)N[C@@H](CCC(=O)O)C(=O)N[C@@H](Cc1c[nH]c2ccccc12)C(=O)N[C@@H](CC(C)C)C(=O)N[C@@H](CCCCN)C(=O)N[C@@H](CC(N)=O)C(=O)N[C@H](C(=O)NCC(=O)N1CCC[C@H]1C(=O)N[C@@H](CO)C(=O)N[C@@H](CO)C(=O)NCC(=O)N[C@@H](C)C(=O)N1CCC[C@H]1C(=O)N1CCC[C@H]1C(=O)N1CCC[C@H]1C(=O)N[C@@H](CO)C(N)=O)[C@@H](C)O)[C@@H](C)CC)C(=O)O
B4: SEQ ID NO: 21 (peptide)
peptide: Y[Aib]EGTFTSDLSIQK([γGlu-Stearoyl])ESRAAQEFIEWLKAGGPSSGAPPPS-NH2
modifications: N-terminus assumed
SMILES: CCCCCCCCCCCCCCCCCC(=O)N[C@@H](CCC(=O)NCCCC[C@H](NC(=O)[C@H](CCC(N)=O)NC(=O)[C@@H](NC(=O)[C@H](CO)NC(=O)[C@H](CC(C)C)NC(=O)[C@H](CC(=O)O)NC(=O)[C@H](CO)NC(=O)[C@@H](NC(=O)[C@H](Cc1ccccc1)NC(=O)[C@@H](NC(=O)CNC(=O)[C@H](CCC(=O)O)NC(=O)C(C)(C)NC(=O)[C@@H](N)Cc1ccc(O)cc1)[C@@H](C)O)[C@@H](C)O)[C@@H](C)CC)C(=O)N[C@@H](CCC(=O)O)C(=O)N[C@@H](CO)C(=O)N[C@@H](CCCNC(=N)N)C(=O)N[C@@H](C)C(=O)N[C@@H](C)C(=O)N[C@@H](CCC(N)=O)C(=O)N[C@@H](CCC(=O)O)C(=O)N[C@@H](Cc1ccccc1)C(=O)N[C@H](C(=O)N[C@@H](CCC(=O)O)C(=O)N[C@@H](Cc1c[nH]c2ccccc12)C(=O)N[C@@H](CC(C)C)C(=O)N[C@@H](CCCCN)C(=O)N[C@@H](C)C(=O)NCC(=O)NCC(=O)N1CCC[C@H]1C(=O)N[C@@H](CO)C(=O)N[C@@H](CO)C(=O)NCC(=O)N[C@@H](C)C(=O)N1CCC[C@H]1C(=O)N1CCC[C@H]1C(=O)N1CCC[C@H]1C(=O)N[C@@H](CO)C(N)=O)[C@@H](C)CC)C(=O)O
B5: SEQ ID NO: 22 (peptide)
peptide: Y[Aib]EGTFTSDLSIQK([γGlu-Palmitoyl])DSRAAQDFIEWLKAGGPSSGAPPPS-NH2
modifications: N-terminus assumed
SMILES: CCCCCCCCCCCCCCCC(=O)N[C@@H](CCC(=O)NCCCC[C@H](NC(=O)[C@H](CCC(N)=O)NC(=O)[C@@H](NC(=O)[C@H](CO)NC(=O)[C@H](CC(C)C)NC(=O)[C@H](CC(=O)O)NC(=O)[C@H](CO)NC(=O)[C@@H](NC(=O)[C@H](Cc1ccccc1)NC(=O)[C@@H](NC(=O)CNC(=O)[C@H](CCC(=O)O)NC(=O)C(C)(C)NC(=O)[C@@H](N)Cc1ccc(O)cc1)[C@@H](C)O)[C@@H](C)O)[C@@H](C)CC)C(=O)N[C@@H](CC(=O)O)C(=O)N[C@@H](CO)C(=O)N[C@@H](CCCNC(=N)N)C(=O)N[C@@H](C)C(=O)N[C@@H](C)C(=O)N[C@@H](CCC(N)=O)C(=O)N[C@@H](CC(=O)O)C(=O)N[C@@H](Cc1ccccc1)C(=O)N[C@H](C(=O)N[C@@H](CCC(=O)O)C(=O)N[C@@H](Cc1c[nH]c2ccccc12)C(=O)N[C@@H](CC(C)C)C(=O)N[C@@H](CCCCN)C(=O)N[C@@H](C)C(=O)NCC(=O)NCC(=O)N1CCC[C@H]1C(=O)N[C@@H](CO)C(=O)N[C@@H](CO)C(=O)NCC(=O)N[C@@H](C)C(=O)N1CCC[C@H]1C(=O)N1CCC[C@H]1C(=O)N1CCC[C@H]1C(=O)N[C@@H](CO)C(N)=O)[C@@H](C)CC)C(=O)O
B6: SEQ ID NO: 24 (peptide)
peptide: Y[Aib]EGTFTSDLSIQK([γGlu-Palmitoyl])ESRAA[Aib]DFIEWLKNTGPSSGAPPPS-NH2
modifications: N-terminus assumed
SMILES: CCCCCCCCCCCCCCCC(=O)N[C@@H](CCC(=O)NCCCC[C@H](NC(=O)[C@H](CCC(N)=O)NC(=O)[C@@H](NC(=O)[C@H](CO)NC(=O)[C@H](CC(C)C)NC(=O)[C@H](CC(=O)O)NC(=O)[C@H](CO)NC(=O)[C@@H](NC(=O)[C@H](Cc1ccccc1)NC(=O)[C@@H](NC(=O)CNC(=O)[C@H](CCC(=O)O)NC(=O)C(C)(C)NC(=O)[C@@H](N)Cc1ccc(O)cc1)[C@@H](C)O)[C@@H](C)O)[C@@H](C)CC)C(=O)N[C@@H](CCC(=O)O)C(=O)N[C@@H](CO)C(=O)N[C@@H](CCCNC(=N)N)C(=O)N[C@@H](C)C(=O)N[C@@H](C)C(=O)NC(C)(C)C(=O)N[C@@H](CC(=O)O)C(=O)N[C@@H](Cc1ccccc1)C(=O)N[C@H](C(=O)N[C@@H](CCC(=O)O)C(=O)N[C@@H](Cc1c[nH]c2ccccc12)C(=O)N[C@@H](CC(C)C)C(=O)N[C@@H](CCCCN)C(=O)N[C@@H](CC(N)=O)C(=O)N[C@H](C(=O)NCC(=O)N1CCC[C@H]1C(=O)N[C@@H](CO)C(=O)N[C@@H](CO)C(=O)NCC(=O)N[C@@H](C)C(=O)N1CCC[C@H]1C(=O)N1CCC[C@H]1C(=O)N1CCC[C@H]1C(=O)N[C@@H](CO)C(N)=O)[C@@H](C)O)[C@@H](C)CC)C(=O)O

What follows are binders tested against human glucagon receptor (human, UniProt P47871 26-477) (assay: cell-based or functional assay).
Sequence of human glucagon receptor (P47871 26-477): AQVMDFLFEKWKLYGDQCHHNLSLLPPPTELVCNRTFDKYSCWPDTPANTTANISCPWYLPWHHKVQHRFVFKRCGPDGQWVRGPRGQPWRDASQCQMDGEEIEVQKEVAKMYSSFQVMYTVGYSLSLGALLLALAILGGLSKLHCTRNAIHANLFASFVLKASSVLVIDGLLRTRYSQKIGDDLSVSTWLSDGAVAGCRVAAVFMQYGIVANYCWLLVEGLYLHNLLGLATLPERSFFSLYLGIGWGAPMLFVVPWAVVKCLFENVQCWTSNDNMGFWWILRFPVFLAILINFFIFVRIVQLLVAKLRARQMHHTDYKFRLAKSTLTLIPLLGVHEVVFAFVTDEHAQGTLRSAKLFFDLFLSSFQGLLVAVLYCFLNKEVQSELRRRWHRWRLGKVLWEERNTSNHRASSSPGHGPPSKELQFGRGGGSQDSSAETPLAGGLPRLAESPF

Going from B1 to B2, the “EC50 hGLUC R [pM]” value rises from 708 pM to 3310 pM.

First: B3
Second: B4
The “EC50 hGLUC R [pM]” value of the first is higher: 19100 pM for the first, 10100 pM for the second.

Compared with B5, B6 is higher in “EC50 hGLUC R [pM]” value: 11600 pM for the first, 38900 pM for the second.

What follows are binders tested against human GLP-1 receptor (human, UniProt P43220 24-463) (assay: cell-based or functional assay).

Going from B1 to B2, the “EC50 hGLP-1 R [pM]” value rises from 4 pM to 23.2 pM.

First: B3
Second: B4
The “EC50 hGLP-1 R [pM]” value of the first is higher: 11.8 pM for the first, 4.8 pM for the second.

Going from B5 to B6, the “EC50 hGLP-1 R [pM]” value falls from 32 pM to 13.5 pM.

These binders were tested against T1, human GIP receptor (human, UniProt P48546 22-466) (assay: cell-based or functional assay).
T1 sequence (looked up): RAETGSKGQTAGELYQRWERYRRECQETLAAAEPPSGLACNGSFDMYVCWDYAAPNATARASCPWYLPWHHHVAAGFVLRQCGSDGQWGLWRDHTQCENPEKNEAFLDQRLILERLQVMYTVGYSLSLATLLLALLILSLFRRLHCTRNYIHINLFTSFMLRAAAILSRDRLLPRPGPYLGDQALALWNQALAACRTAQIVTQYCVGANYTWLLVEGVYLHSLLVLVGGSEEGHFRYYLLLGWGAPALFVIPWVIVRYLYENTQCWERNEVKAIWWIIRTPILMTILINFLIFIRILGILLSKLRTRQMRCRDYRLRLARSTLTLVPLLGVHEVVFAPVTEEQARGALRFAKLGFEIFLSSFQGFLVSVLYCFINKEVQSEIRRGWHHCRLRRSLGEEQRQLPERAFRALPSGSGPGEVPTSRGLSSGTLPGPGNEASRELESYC

Going from B1 to B2, the “EC50 hGIP R [pM]” value rises from 13.8 pM to 24.5 pM.

First: B3
Second: B4
The “EC50 hGIP R [pM]” value of the first is higher: 79.5 pM for the first, 6.4 pM for the second.

Compared with B5, B6 is higher in “EC50 hGIP R [pM]” value: 16.6 pM for the first, 23.5 pM for the second.
